Measured values: article PMC9482650, “Quantitative fragmentomics allow affinity mapping of interactomes” (Nature Communications, 2022)

T1: GRIP1_4, Q9Y3R0
T1 sequence (Q9Y3R0 467-571, limits assumed, looked up): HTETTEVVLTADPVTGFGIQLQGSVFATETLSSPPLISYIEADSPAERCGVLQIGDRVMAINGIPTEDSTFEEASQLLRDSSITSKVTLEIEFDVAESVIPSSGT

T2: LNX2_2, Q8N448
T2 sequence (Q8N448 334-432, limits assumed, looked up): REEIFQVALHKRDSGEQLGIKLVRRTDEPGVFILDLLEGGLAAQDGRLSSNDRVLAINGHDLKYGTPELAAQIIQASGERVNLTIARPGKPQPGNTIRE

T3: LNX2_3, Q8N448
T3 sequence (Q8N448 463-564, limits assumed, looked up): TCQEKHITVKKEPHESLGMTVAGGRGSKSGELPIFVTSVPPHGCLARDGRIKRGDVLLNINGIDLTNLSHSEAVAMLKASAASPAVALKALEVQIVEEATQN

T4: RADIL, Q96JH8
T4 sequence (Q96JH8 971-1071, limits assumed, looked up): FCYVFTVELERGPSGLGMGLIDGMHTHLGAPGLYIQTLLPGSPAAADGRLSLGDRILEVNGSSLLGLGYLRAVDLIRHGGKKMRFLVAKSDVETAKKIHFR

T5: NHERF3_1, Q5T2W1
T5 sequence (Q5T2W1 4-100, limits assumed, looked up): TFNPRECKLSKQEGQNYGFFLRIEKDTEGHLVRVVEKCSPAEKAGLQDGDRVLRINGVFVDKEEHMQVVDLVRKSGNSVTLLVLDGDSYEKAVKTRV

T6: MPP2, Q14168
T6 sequence (Q14168 180-250, limits assumed, looked up): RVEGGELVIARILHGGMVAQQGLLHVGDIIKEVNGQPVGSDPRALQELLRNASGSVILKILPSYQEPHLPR

T7: LIN7B, Q9HAP6
T7 sequence (Q9HAP6 88-185, limits assumed, looked up): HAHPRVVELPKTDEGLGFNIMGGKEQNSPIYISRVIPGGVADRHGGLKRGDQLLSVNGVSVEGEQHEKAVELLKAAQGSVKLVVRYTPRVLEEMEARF

T8: ARHGEF11, O15085
T8 sequence (O15085 42-136, limits assumed, looked up): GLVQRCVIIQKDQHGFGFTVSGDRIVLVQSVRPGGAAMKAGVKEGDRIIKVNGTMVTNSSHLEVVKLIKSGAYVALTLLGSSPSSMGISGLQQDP

T9: DVL3, Q92997
T9 sequence (Q92997 244-331, limits assumed, looked up): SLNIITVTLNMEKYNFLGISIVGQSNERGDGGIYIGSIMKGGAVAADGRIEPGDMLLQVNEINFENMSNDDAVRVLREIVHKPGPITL

T10: GRIP1_5, Q9Y3R0
T10 sequence (Q9Y3R0 568-668, limits assumed, looked up): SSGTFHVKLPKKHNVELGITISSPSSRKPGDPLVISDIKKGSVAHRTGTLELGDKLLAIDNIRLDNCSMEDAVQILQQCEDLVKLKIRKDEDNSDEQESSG

T11: DLG3_3, Q92796
T11 sequence (Q92796 374-475, limits assumed, looked up): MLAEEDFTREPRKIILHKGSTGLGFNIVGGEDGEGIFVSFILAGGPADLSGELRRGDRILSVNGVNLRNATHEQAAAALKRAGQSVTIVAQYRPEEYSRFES

T12: TIAM2, Q8IVF5
T12 sequence (Q8IVF5 885-986, limits assumed, looked up): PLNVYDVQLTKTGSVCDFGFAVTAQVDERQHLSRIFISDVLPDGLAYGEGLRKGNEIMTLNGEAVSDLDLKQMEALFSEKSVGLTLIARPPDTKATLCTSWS


These binders were tested against T1, GRIP1_4, Q9Y3R0 (assay: holdup assay). Details: plain residues with an end cap or a label only (N-terminal biotin on a linker: ado-ado).
Parameters: key: below the threshold = too weak to quantify, mostly under pKd 3.1 to 4

Row | Binder | pKd
1 | VYEVPVETKF [SLC26A3, P40879] | below the threshold
2 | PSDSVGKDVF [EGLN1, Q9GZT9] | below the threshold

These binders were tested against FRMPD4, Q14CM0 (assay: holdup assay). Details: plain residues with an end cap or a label only (N-terminal biotin on a linker: ado-ado).
Parameters: key: below the threshold = too weak to quantify, mostly under pKd 3.1 to 4

Sequence of FRMPD4, Q14CM0 (Q14CM0 67-160): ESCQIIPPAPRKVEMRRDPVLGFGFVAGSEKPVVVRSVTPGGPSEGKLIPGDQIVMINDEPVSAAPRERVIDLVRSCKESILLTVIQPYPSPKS

Row | Binder | pKd
3 | VYEVPVETKF [SLC26A3, P40879] | 3.65
4 | PSDSVGKDVF [EGLN1, Q9GZT9] | below the threshold

The binders below were run against T2, LNX2_2, Q8N448 (assay: holdup assay). Details: plain residues with an end cap or a label only (N-terminal biotin on a linker: ado-ado).
Parameters: key: below the threshold = too weak to quantify, mostly under pKd 3.1 to 4

Row | Binder | pKd
5 | VYEVPVETKF [SLC26A3, P40879] | below the threshold
6 | PSDSVGKDVF [EGLN1, Q9GZT9] | below the threshold

These binders were tested against T3, LNX2_3, Q8N448 (assay: holdup assay). Details: plain residues with an end cap or a label only (N-terminal biotin on a linker: ado-ado).
Parameters: key: below the threshold = too weak to quantify, mostly under pKd 3.1 to 4

Row | Binder | pKd
7 | VYEVPVETKF [SLC26A3, P40879] | below the threshold
8 | PSDSVGKDVF [EGLN1, Q9GZT9] | below the threshold

What follows are binders tested against T4, RADIL, Q96JH8 (assay: holdup assay). Details: plain residues with an end cap or a label only (N-terminal biotin on a linker: ado-ado).
Parameters: key: below the threshold = too weak to quantify, mostly under pKd 3.1 to 4

Row | Binder | pKd
9 | VYEVPVETKF [SLC26A3, P40879] | below the threshold
10 | PSDSVGKDVF [EGLN1, Q9GZT9] | below the threshold

Each binder was assayed against T5, NHERF3_1, Q5T2W1 (assay: holdup assay). Details: plain residues with an end cap or a label only (N-terminal biotin on a linker: ado-ado).
Parameters: key: below the threshold = too weak to quantify, mostly under pKd 3.1 to 4

Row | Binder | pKd
11 | VYEVPVETKF [SLC26A3, P40879] | 5.51
12 | PSDSVGKDVF [EGLN1, Q9GZT9] | below the threshold

The binders below were run against T6, MPP2, Q14168 (assay: holdup assay). Details: plain residues with an end cap or a label only (N-terminal biotin on a linker: ado-ado).
Parameters: key: below the threshold = too weak to quantify, mostly under pKd 3.1 to 4

Row | Binder | pKd
13 | VYEVPVETKF [SLC26A3, P40879] | below the threshold
14 | PSDSVGKDVF [EGLN1, Q9GZT9] | below the threshold

Each binder was assayed against T7, LIN7B, Q9HAP6 (assay: holdup assay). Details: plain residues with an end cap or a label only (N-terminal biotin on a linker: ado-ado).
Parameters: key: below the threshold = too weak to quantify, mostly under pKd 3.1 to 4

Row | Binder | pKd
15 | VYEVPVETKF [SLC26A3, P40879] | 4.21
16 | PSDSVGKDVF [EGLN1, Q9GZT9] | 3.55

The binders below were run against IL16_4, Q14005 (assay: holdup assay). Details: plain residues with an end cap or a label only (N-terminal biotin on a linker: ado-ado).
Parameters: key: below the threshold = too weak to quantify, mostly under pKd 3.1 to 4

Sequence of IL16_4, Q14005 (Q14005 1229-1329): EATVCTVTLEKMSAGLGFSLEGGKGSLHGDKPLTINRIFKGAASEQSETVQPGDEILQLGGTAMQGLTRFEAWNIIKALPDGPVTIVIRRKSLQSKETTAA

Row | Binder | pKd
17 | VYEVPVETKF [SLC26A3, P40879] | below the threshold
18 | PSDSVGKDVF [EGLN1, Q9GZT9] | 3.63

The binders below were run against SNX27, Q96L92 (assay: holdup assay). Details: plain residues with an end cap or a label only (N-terminal biotin on a linker: ado-ado).
Parameters: key: below the threshold = too weak to quantify, mostly under pKd 3.1 to 4

Row | Binder | pKd
19 | VYEVPVETKF [SLC26A3, P40879] | 5.33
20 | PSDSVGKDVF [EGLN1, Q9GZT9] | below the threshold

The binders below were run against IL16_3, Q14005 (assay: holdup assay). Details: plain residues with an end cap or a label only (N-terminal biotin on a linker: ado-ado).
Parameters: key: below the threshold = too weak to quantify, mostly under pKd 3.1 to 4

Sequence of IL16_3, Q14005 (Q14005 1107-1207): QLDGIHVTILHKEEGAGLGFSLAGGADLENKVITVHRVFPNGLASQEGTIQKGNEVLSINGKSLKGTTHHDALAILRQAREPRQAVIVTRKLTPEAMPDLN

Row | Binder | pKd
21 | VYEVPVETKF [SLC26A3, P40879] | below the threshold
22 | PSDSVGKDVF [EGLN1, Q9GZT9] | below the threshold

The binders below were run against Inadl_2, Q8NI35 (assay: holdup assay). Details: plain residues with an end cap or a label only (N-terminal biotin on a linker: ado-ado).
Parameters: key: below the threshold = too weak to quantify, mostly under pKd 3.1 to 4

Sequence of Inadl_2, Q8NI35 (Q8NI35 238-335): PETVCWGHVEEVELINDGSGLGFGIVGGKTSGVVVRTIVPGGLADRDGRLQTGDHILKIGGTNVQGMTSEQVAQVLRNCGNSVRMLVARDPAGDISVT

Row | Binder | pKd
23 | VYEVPVETKF [SLC26A3, P40879] | below the threshold
24 | PSDSVGKDVF [EGLN1, Q9GZT9] | below the threshold

The binders below were run against T8, ARHGEF11, O15085 (assay: holdup assay). Details: plain residues with an end cap or a label only (N-terminal biotin on a linker: ado-ado).
Parameters: key: below the threshold = too weak to quantify, mostly under pKd 3.1 to 4

Row | Binder | pKd
25 | VYEVPVETKF [SLC26A3, P40879] | 3.62
26 | PSDSVGKDVF [EGLN1, Q9GZT9] | below the threshold

Each binder was assayed against MAGI2_2, Q86UL8 (assay: holdup assay). Details: plain residues with an end cap or a label only (N-terminal biotin on a linker: ado-ado).
Parameters: key: below the threshold = too weak to quantify, mostly under pKd 3.1 to 4

Sequence of MAGI2_2, Q86UL8 (Q86UL8 410-522): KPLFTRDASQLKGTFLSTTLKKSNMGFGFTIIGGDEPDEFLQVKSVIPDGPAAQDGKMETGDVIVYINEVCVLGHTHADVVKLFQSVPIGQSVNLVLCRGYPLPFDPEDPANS

Row | Binder | pKd
27 | VYEVPVETKF [SLC26A3, P40879] | below the threshold
28 | PSDSVGKDVF [EGLN1, Q9GZT9] | below the threshold

What follows are binders tested against T9, DVL3, Q92997 (assay: holdup assay). Details: plain residues with an end cap or a label only (N-terminal biotin on a linker: ado-ado).
Parameters: key: below the threshold = too weak to quantify, mostly under pKd 3.1 to 4

Row | Binder | pKd
29 | VYEVPVETKF [SLC26A3, P40879] | below the threshold
30 | PSDSVGKDVF [EGLN1, Q9GZT9] | below the threshold

The binders below were run against LAP2, Q96RT1 (assay: holdup assay). Details: plain residues with an end cap or a label only (N-terminal biotin on a linker: ado-ado).
Parameters: key: below the threshold = too weak to quantify, mostly under pKd 3.1 to 4

Sequence of LAP2, Q96RT1 (Q96RT1 other isoform, or with tags, fused parts or gaps): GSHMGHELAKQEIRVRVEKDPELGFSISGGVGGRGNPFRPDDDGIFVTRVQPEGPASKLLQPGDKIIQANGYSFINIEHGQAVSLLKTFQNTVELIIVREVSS

Row | Binder | pKd
31 | VYEVPVETKF [SLC26A3, P40879] | below the threshold
32 | PSDSVGKDVF [EGLN1, Q9GZT9] | below the threshold

Each binder was assayed against TJP2_1, Q9UDY2 (assay: holdup assay). Details: plain residues with an end cap or a label only (N-terminal biotin on a linker: ado-ado).
Parameters: key: below the threshold = too weak to quantify, mostly under pKd 3.1 to 4

Sequence of TJP2_1, Q9UDY2 (Q9UDY2 24-128): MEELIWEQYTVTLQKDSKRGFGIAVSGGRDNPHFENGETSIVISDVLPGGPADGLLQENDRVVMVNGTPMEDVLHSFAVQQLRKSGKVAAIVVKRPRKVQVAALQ

Row | Binder | pKd
33 | VYEVPVETKF [SLC26A3, P40879] | 4.02
34 | PSDSVGKDVF [EGLN1, Q9GZT9] | below the threshold

Each binder was assayed against GRIP2_5, Q9C0E4 (assay: holdup assay). Details: plain residues with an end cap or a label only (N-terminal biotin on a linker: ado-ado).
Parameters: key: below the threshold = too weak to quantify, mostly under pKd 3.1 to 4

Sequence of GRIP2_5, Q9C0E4 (Q9C0E4 544-642): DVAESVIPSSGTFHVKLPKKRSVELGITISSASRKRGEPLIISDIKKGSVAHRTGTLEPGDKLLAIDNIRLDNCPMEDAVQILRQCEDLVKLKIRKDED

Row | Binder | pKd
35 | VYEVPVETKF [SLC26A3, P40879] | below the threshold
36 | PSDSVGKDVF [EGLN1, Q9GZT9] | below the threshold

The binders below were run against PARD3_3, Q8TEW0 (assay: holdup assay). Details: plain residues with an end cap or a label only (N-terminal biotin on a linker: ado-ado).
Parameters: key: below the threshold = too weak to quantify, mostly under pKd 3.1 to 4

Sequence of PARD3_3, Q8TEW0 (Q8TEW0 582-685): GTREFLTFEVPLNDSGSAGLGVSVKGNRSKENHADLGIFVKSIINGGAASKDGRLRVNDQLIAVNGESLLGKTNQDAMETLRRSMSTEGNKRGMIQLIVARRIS

Row | Binder | pKd
37 | VYEVPVETKF [SLC26A3, P40879] | below the threshold
38 | PSDSVGKDVF [EGLN1, Q9GZT9] | below the threshold

What follows are binders tested against T10, GRIP1_5, Q9Y3R0 (assay: holdup assay). Details: plain residues with an end cap or a label only (N-terminal biotin on a linker: ado-ado).
Parameters: key: below the threshold = too weak to quantify, mostly under pKd 3.1 to 4

Row | Binder | pKd
39 | VYEVPVETKF [SLC26A3, P40879] | below the threshold
40 | PSDSVGKDVF [EGLN1, Q9GZT9] | below the threshold

The binders below were run against GIPC2, Q8TF65 (assay: holdup assay). Details: plain residues with an end cap or a label only (N-terminal biotin on a linker: ado-ado).
Parameters: key: below the threshold = too weak to quantify, mostly under pKd 3.1 to 4

Sequence of GIPC2, Q8TF65 (Q8TF65 112-203): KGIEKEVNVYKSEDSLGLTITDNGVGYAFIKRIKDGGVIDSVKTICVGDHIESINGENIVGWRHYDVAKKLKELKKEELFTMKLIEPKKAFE

Row | Binder | pKd
41 | VYEVPVETKF [SLC26A3, P40879] | 3.53
42 | PSDSVGKDVF [EGLN1, Q9GZT9] | below the threshold

The binders below were run against DLG1_2, Q12959 (assay: holdup assay). Details: plain residues with an end cap or a label only (N-terminal biotin on a linker: ado-ado).
Parameters: key: below the threshold = too weak to quantify, mostly under pKd 3.1 to 4

Sequence of DLG1_2, Q12959 (Q12959 314-412): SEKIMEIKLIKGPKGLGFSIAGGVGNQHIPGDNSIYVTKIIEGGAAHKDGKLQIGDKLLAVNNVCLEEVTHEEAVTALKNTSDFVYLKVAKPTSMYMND

Row | Binder | pKd
43 | VYEVPVETKF [SLC26A3, P40879] | 3.59
44 | PSDSVGKDVF [EGLN1, Q9GZT9] | below the threshold

Each binder was assayed against T11, DLG3_3, Q92796 (assay: holdup assay). Details: plain residues with an end cap or a label only (N-terminal biotin on a linker: ado-ado).
Parameters: key: below the threshold = too weak to quantify, mostly under pKd 3.1 to 4

Row | Binder | pKd
45 | VYEVPVETKF [SLC26A3, P40879] | below the threshold
46 | PSDSVGKDVF [EGLN1, Q9GZT9] | below the threshold

The binders below were run against MAST2, Q6P0Q8 (assay: holdup assay). Details: plain residues with an end cap or a label only (N-terminal biotin on a linker: ado-ado).
Parameters: key: below the threshold = too weak to quantify, mostly under pKd 3.1 to 4

Sequence of MAST2, Q6P0Q8 (Q6P0Q8 1099-1202): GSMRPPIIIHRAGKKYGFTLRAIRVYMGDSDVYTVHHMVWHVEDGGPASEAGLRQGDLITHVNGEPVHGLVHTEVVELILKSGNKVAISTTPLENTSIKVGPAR

Row | Binder | pKd
47 | VYEVPVETKF [SLC26A3, P40879] | 5.48
48 | PSDSVGKDVF [EGLN1, Q9GZT9] | below the threshold

The binders below were run against T12, TIAM2, Q8IVF5 (assay: holdup assay). Details: plain residues with an end cap or a label only (N-terminal biotin on a linker: ado-ado).
Parameters: key: below the threshold = too weak to quantify, mostly under pKd 3.1 to 4

Row | Binder | pKd
49 | VYEVPVETKF [SLC26A3, P40879] | 3.98
50 | PSDSVGKDVF [EGLN1, Q9GZT9] | 4.05

These binders were tested against NOS1, P29475 (assay: holdup assay). Details: plain residues with an end cap or a label only (N-terminal biotin on a linker: ado-ado).
Parameters: key: below the threshold = too weak to quantify, mostly under pKd 3.1 to 4

Sequence of NOS1, P29475 (P29475 9-101): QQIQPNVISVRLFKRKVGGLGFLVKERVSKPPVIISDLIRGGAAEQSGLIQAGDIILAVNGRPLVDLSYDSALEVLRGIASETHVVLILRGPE

Row | Binder | pKd
51 | VYEVPVETKF [SLC26A3, P40879] | 3.72
52 | PSDSVGKDVF [EGLN1, Q9GZT9] | below the threshold
